# In patent US20210008109A1, “METHODS OF TREATING HEMATOLOGICAL DISORDERS, SOLID TUMORS, OR INFECTIOUS DISEASES USING NATURAL KILLER CELLS” (CELGENE CORPORATION, priority 2014, published 2021):
# System: Daudi cells
# Test: Antibody-dependent cellular cytotoxicity (ADCC) of PiNK cells with rituximab, PKH26/TO-PRO-3 FACS
# Assay type: cell-based
# Conditions: Daudi cells pre-incubated 1 h with rituximab, compared to human IgG isotype control; E:T 50:1, 20:1, 10:1 and 2.5:1; 4 h at 37° C.
# Method: The experiments presented herein utilize an anti-CD20 antibody, rituximab, and Daudi cells (Cat #: CCL-213, ATCC), which are high expressers of CD20. Daudi cells were harvested and labeled with PKH26 (Cat #: PKH26GL-1KT, Sigma-Aldrich) (Ferlazzo, G., et al., J Immunol, 172: 1455-1462 (2004); Lehmann, D., et al., Stem Cells Dev, 21: 2926-2938 (2012)), whose lipophilic aliphatic residue inserts into cell plasma membrane. The cells were washed and incubated with rituximab (and human IgG as an isotype control) at different concentrations as indicated in FIG. 1 for 1 h at room temperature. After washing three times, 10^4 target cells were placed in 96-well U-bottom tissue culture plates and incubated with cultured NK cells at various effector-target (E:T) ratios (50:1, 20:1, 10:1 and 2.5:1) in 200 μl RPMI 1640 supplemented with 10% FBS. The Cultures were incubated for 4 h at 37° C. in 5% CO2. After incubation, cells were harvested and TO-PRO-3 (Catalog #T3605, Invitrogen), a membrane-impermeable DNA stain, was added to cultures to 0.25 μM final concentration followed by FACS analysis using BD FACSCanto II. Cytotoxicity (“% cytotoxicity” in FIG. 1) is expressed as percentage of dead cells (PKH26^+TO-PRO-3^+) within the total PKH26^+ target tumor cells, subtracted by spontaneous cell death.
substance,measurement,value
rituximab,"% cytotoxicity of PiNK cells (dead PKH26+TO-PRO-3+ cells within total PKH26+ target cells, minus spontaneous cell death)",increases the cytotoxicity
